Data as given in patent publication US20010044102.

System: c-Myc (pM21 expression), P01106-1
Test: cell_activity
Conditions: luciferase, NIH 3T3, SV40 minimal promoter

Sequence of c-Myc (pM21 expression), P01106-1 (P01106 16-454): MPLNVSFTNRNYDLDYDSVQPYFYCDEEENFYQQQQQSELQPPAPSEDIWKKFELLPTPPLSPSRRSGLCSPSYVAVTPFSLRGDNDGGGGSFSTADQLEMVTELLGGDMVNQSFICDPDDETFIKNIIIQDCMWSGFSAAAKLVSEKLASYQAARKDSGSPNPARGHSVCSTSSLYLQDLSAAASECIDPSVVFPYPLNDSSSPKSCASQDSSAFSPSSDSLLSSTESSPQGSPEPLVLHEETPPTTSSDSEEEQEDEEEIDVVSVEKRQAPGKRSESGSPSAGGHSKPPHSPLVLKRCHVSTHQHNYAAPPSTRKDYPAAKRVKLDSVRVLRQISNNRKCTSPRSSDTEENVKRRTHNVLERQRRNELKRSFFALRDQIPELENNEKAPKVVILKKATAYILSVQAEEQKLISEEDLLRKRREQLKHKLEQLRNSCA

Substance: cdc25A 2.5 kb KpnI/HindIII fragment (MB2+MB3) luciferase reporter
- activity: 5 fold
